T1: Trypsin inhibitor type 1-S from Glycine max (Glycine max, UniProt P01070 25-205)
T1 construct: Amine coupled to a CM5 chip
T1 sequence (looked up): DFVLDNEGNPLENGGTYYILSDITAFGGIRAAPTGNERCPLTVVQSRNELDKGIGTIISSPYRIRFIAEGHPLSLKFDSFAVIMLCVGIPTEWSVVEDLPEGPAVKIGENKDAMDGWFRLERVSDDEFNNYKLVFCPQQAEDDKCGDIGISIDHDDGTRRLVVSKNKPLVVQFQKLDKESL


Key:
[1] = target: T2, monkey TSLP antigen (R127A, R130S) Protein, His Tag (ACRO, Cat#: TSP-C52H4) (monkey, UniProt A0A7N9CAT7 29-159); experiment: SPR, His-TSLP captured on anti-His CM5, antibody analyte
T2 construct: Bought protein
T2 sequence (A0A7N9CAT7 entry or part of it R127A R130S R127A R130S limits assumed, form in doubt): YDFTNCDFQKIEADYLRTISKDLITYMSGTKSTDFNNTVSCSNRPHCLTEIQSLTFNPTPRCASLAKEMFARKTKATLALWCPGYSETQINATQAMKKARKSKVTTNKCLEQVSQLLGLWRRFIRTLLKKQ

[2] = target: T3, Lysozyme solution from chicken egg (chicken, UniProt P00698 19-147); experiment: SPR, protein coupled to CM5
T3 construct: Amine coupled to a CM5 chip
T3 sequence (P00698 19-147 limits assumed): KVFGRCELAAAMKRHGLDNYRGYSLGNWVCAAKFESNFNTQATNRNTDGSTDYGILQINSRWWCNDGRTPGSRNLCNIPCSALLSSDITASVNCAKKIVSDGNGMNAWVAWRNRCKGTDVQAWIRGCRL

[3] = target: T1, Trypsin inhibitor type 1-S from Glycine …; experiment: SPR, protein coupled to CM5
[4] = target: T4, human TSLP with His tag (ACRO, TSP-H52Ha) (human, UniProt Q969D9 29-159); experiment: SPR, His-TSLP captured on anti-His CM5, antibody analyte
T4 construct: Bought protein; also called human TSLP antigens; Human TSLP (Acro, #TSP-H52Ha); not shown: His tag

[5] = target: Human TSLP (form and source not stated) (human, UniProt Q969D9 29-159, limits assumed); experiment: cell-based or functional assay

| Binder | Kd [1] [nM] | koff [1] [s⁻¹] | kon [1] [M⁻¹ s⁻¹] | binding response (RU) [2] [RU] | binding response (RU) [3] [RU] | Kd [4] [nM] | koff [4] [s⁻¹] | kon [4] [M⁻¹ s⁻¹] | TARC in PBMC supernatant (ELISA) [5] |
| --- | --- | --- | --- | --- | --- | --- | --- | --- | --- |
| 900792 chimera (antibody, human IgG1, kappa, L234A L235A, V domains shown, Human-mouse chimera of clone 77E6; human IgG1 constant region with L234A and L235A (Eu), human kappa) VH: QVQLQQSGAELVRPGTSVKVSCKASGYAFTNYLIEWVKQRPGQGLEWIGVINPESGDTYYSEKFKGKATLTADKSSSTAYMQLSSLTSEDSAVYFCAKESLTGSSYDYWGQGTTLTVSS VL: DIQMTQSPASLSASVGESVTITCRASENIYSNLVWYQQKQGKSPQLLVYGARNLADGVPSRFSGSGSGTQFSLKINSLQPEDFGNYYCQHFYETPLTFGTGTKLEIKR | 4.58 | 0.0159 | 3.47e+06 | 2.1 | 7.2 | 0.223 | 0.000157 | 703000 |  |
| 900792-huH2L2 (antibody, human IgG1, kappa, L234A L235A, V domains shown, Humanized) VH: QVQLVQSGAEVKKPGASVKVSCKASGYAFTNYLIEWVRQAPGQGLEWMGIINPESGDTYYAQKFQGRVTMTADKSTSTAYMELSSLRSEDSAVYFCAKESLTGSSYDYWGQGTTLTVSS VL: DIQMTQSPSSLSASVGDRVTITCRASENIYSNLVWYQQKPGKAPQLLVYGARNLQSGVPSRFSGSGSGTQFSLTISSLQPEDFATYYCQHFYETPLTFGTGTKLEIKR | 5.06 | 0.0165 | 3.27e+06 | 1.4 | 6.8 | 0.172 | 0.000126 | 733000 | ~10 times better than Tezepelumab |
| 900792-huH2L3 (antibody, human IgG1, kappa, L234A L235A, V domains shown, Humanized) VH: QVQLVQSGAEVKKPGASVKVSCKASGYAFTNYLIEWVRQAPGQGLEWMGIINPESGDTYYAQKFQGRVTMTADKSTSTAYMELSSLRSEDSAVYFCAKESLTGSSYDYWGQGTTLTVSS VL: DIQMTQSPSSLSASVGDRVTITCRASENIYSNLVWYQQKPGKAPQLLIYGARNLQSGVPSRFSGSGSGTQFTLTISSLQPEDFATYYCQHFYETPLTFGTGTKLEIKR | 5.88 | 0.0189 | 3.22e+06 | 5.9 | 6.8 | 0.172 | 0.000126 | 733000 | ~10 times better than Tezepelumab |
| 900792-huH4L1 (antibody, human IgG1, kappa, L234A L235A, V domains shown, Humanized) VH: QVQLVQSGAEVKKPGASVKVSCKASGYAFTNYLIEWVRQAPGQGLEWMGIINPESGDTYYAQKFQGRVTLTADKSTSTAYMELSSLRSEDSAVYYCAKESLTGSSYDYWGQGTTLTVSS VL: DIQMTQSPSSLSASVGDRVTITCRASENIYSNLVWYQQKPGKAPQLLVYGARNLADGVPSRFSGSGSGTQFSLTISSLQPEDFATYYCQHFYETPLTFGTGTKLEIKR | 4.17 | 0.00873 | 2.09e+06 | 4 | 9.6 | 0.117 | 8.15e-05 | 694000 | ~10 times better than Tezepelumab |
| 900792-huH1L1 (antibody, human IgG1, kappa, L234A L235A, V domains shown, Humanized) VH: QVQLQQSGAEVKKPGASVKVSCKASGYAFTNYLIEWVRQAPGQGLEWIGVINPESGDTYYSEKFQGRVTLTADKSTSTAYMELSSLRSEDSAVYFCAKESLTGSSYDYWGQGTTLTVSS VL: DIQMTQSPSSLSASVGDRVTITCRASENIYSNLVWYQQKPGKAPQLLVYGARNLADGVPSRFSGSGSGTQFSLTISSLQPEDFATYYCQHFYETPLTFGTGTKLEIKR | 8.16 | 0.00339 | 416000 | 1.8 | 5.7 | 0.126 | 9.45e-05 | 748000 | ~10 times better than Tezepelumab |
| 900792-huH1L3 (antibody, human IgG1, kappa, L234A L235A, V domains shown, Humanized) VH: QVQLQQSGAEVKKPGASVKVSCKASGYAFTNYLIEWVRQAPGQGLEWIGVINPESGDTYYSEKFQGRVTLTADKSTSTAYMELSSLRSEDSAVYFCAKESLTGSSYDYWGQGTTLTVSS VL: DIQMTQSPSSLSASVGDRVTITCRASENIYSNLVWYQQKPGKAPQLLIYGARNLQSGVPSRFSGSGSGTQFTLTISSLQPEDFATYYCQHFYETPLTFGTGTKLEIKR | 7.99 | 0.00321 | 402000 | 1 | 5.9 | 0.0964 | 7.02e-05 | 728000 | ~10 times better than Tezepelumab |
| 900792-huH3L1 (antibody, human IgG1, kappa, L234A L235A, V domains shown, Humanized) VH: QVQLQQSGAEVKKPGASVKVSCKASGYAFTNYLIEWVRQAPGQGLEWMGVINPESGDTYYSQKFQGRVTMTADKSTSTAYMELSSLRSEDSAVYFCAKESLTGSSYDYWGQGTTLTVSS VL: DIQMTQSPSSLSASVGDRVTITCRASENIYSNLVWYQQKPGKAPQLLVYGARNLADGVPSRFSGSGSGTQFSLTISSLQPEDFATYYCQHFYETPLTFGTGTKLEIKR | 6.22 | 0.0362 | 5.82e+06 | 0.9 | 5.6 | 0.175 | 0.000129 | 737000 | ~10 times better than Tezepelumab |
| 900792-huH2L1 (antibody, human IgG1, kappa, L234A L235A, V domains shown, Humanized) VH: QVQLVQSGAEVKKPGASVKVSCKASGYAFTNYLIEWVRQAPGQGLEWMGIINPESGDTYYAQKFQGRVTMTADKSTSTAYMELSSLRSEDSAVYFCAKESLTGSSYDYWGQGTTLTVSS VL: DIQMTQSPSSLSASVGDRVTITCRASENIYSNLVWYQQKPGKAPQLLVYGARNLADGVPSRFSGSGSGTQFSLTISSLQPEDFATYYCQHFYETPLTFGTGTKLEIKR | 3.82 | 0.0122 | 3.19e+06 | 0.8 | 6.9 | 0.141 | 0.00011 | 782000 | ~10 times better than Tezepelumab |
| 900792-huH1L2 (antibody, human IgG1, kappa, L234A L235A, V domains shown, Humanized) VH: QVQLQQSGAEVKKPGASVKVSCKASGYAFTNYLIEWVRQAPGQGLEWIGVINPESGDTYYSEKFQGRVTLTADKSTSTAYMELSSLRSEDSAVYFCAKESLTGSSYDYWGQGTTLTVSS VL: DIQMTQSPSSLSASVGDRVTITCRASENIYSNLVWYQQKPGKAPQLLVYGARNLQSGVPSRFSGSGSGTQFSLTISSLQPEDFATYYCQHFYETPLTFGTGTKLEIKR | 8.23 | 0.00274 | 333000 | 2 | 6 | 0.176 | 0.000126 | 713000 | ~10 times better than Tezepelumab |
| 900792-huH3L3 (antibody, human IgG1, kappa, L234A L235A, V domains shown, Humanized) VH: QVQLQQSGAEVKKPGASVKVSCKASGYAFTNYLIEWVRQAPGQGLEWMGVINPESGDTYYSQKFQGRVTMTADKSTSTAYMELSSLRSEDSAVYFCAKESLTGSSYDYWGQGTTLTVSS VL: DIQMTQSPSSLSASVGDRVTITCRASENIYSNLVWYQQKPGKAPQLLIYGARNLQSGVPSRFSGSGSGTQFTLTISSLQPEDFATYYCQHFYETPLTFGTGTKLEIKR | 6.01 | 0.087 | 1.45e+07 | 1.9 | 8.7 | 0.189 | 0.000143 | 755000 | ~10 times better than Tezepelumab |
| 900792-huH4L2 (antibody, human IgG1, kappa, L234A L235A, V domains shown, Humanized) VH: QVQLVQSGAEVKKPGASVKVSCKASGYAFTNYLIEWVRQAPGQGLEWMGIINPESGDTYYAQKFQGRVTLTADKSTSTAYMELSSLRSEDSAVYYCAKESLTGSSYDYWGQGTTLTVSS VL: DIQMTQSPSSLSASVGDRVTITCRASENIYSNLVWYQQKPGKAPQLLVYGARNLQSGVPSRFSGSGSGTQFSLTISSLQPEDFATYYCQHFYETPLTFGTGTKLEIKR | 3.99 | 0.013 | 3.27e+06 | 3.3 | 8.6 | 0.234 | 0.000174 | 743000 | ~10 times better than Tezepelumab |
| 900792-huH4L3 (antibody, human IgG1, kappa, L234A L235A, V domains shown, Humanized) VH: QVQLVQSGAEVKKPGASVKVSCKASGYAFTNYLIEWVRQAPGQGLEWMGIINPESGDTYYAQKFQGRVTLTADKSTSTAYMELSSLRSEDSAVYYCAKESLTGSSYDYWGQGTTLTVSS VL: DIQMTQSPSSLSASVGDRVTITCRASENIYSNLVWYQQKPGKAPQLLIYGARNLQSGVPSRFSGSGSGTQFTLTISSLQPEDFATYYCQHFYETPLTFGTGTKLEIKR | 4.18 | 0.00989 | 2.37e+06 | 2.4 | 6.6 | 0.157 | 0.000121 | 771000 | ~10 times better than Tezepelumab |
| 900792-huH3L2 (antibody, human IgG1, kappa, L234A L235A, V domains shown, Humanized) VH: QVQLQQSGAEVKKPGASVKVSCKASGYAFTNYLIEWVRQAPGQGLEWMGVINPESGDTYYSQKFQGRVTMTADKSTSTAYMELSSLRSEDSAVYFCAKESLTGSSYDYWGQGTTLTVSS VL: DIQMTQSPSSLSASVGDRVTITCRASENIYSNLVWYQQKPGKAPQLLVYGARNLQSGVPSRFSGSGSGTQFSLTISSLQPEDFATYYCQHFYETPLTFGTGTKLEIKR | 5.05 | 0.0327 | 6.47e+06 | 1.5 | 8.1 | 0.131 | 0.000108 | 822000 | ~10 times better than Tezepelumab |
